Experimental data: publication PMC2593743 (Nature structural & molecular biology, 2008)

Tests used:
[1] = target: T1, VPS4A MIT domain, recombinant (His6-VPS4 MIT) (UniProt Q9UN37 2-80); experiment: SPR
T1 sequence (looked up): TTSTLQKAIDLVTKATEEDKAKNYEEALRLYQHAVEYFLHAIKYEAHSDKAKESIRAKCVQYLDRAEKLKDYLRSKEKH

[2] = target: T2, human spastin MIT domain (residues 112-195), purified (human, UniProt Q9UBP0-1 112-195); experiment: SPR
T2 sequence (looked up): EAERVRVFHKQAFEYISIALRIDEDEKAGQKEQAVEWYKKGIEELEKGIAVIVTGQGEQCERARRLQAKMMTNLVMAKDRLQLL

- Kd [1]: 33 µM
- Kd [2]: 12 µM
B1: polyhistidine-tagged CHMP1B-CTR (residues 126-199), wild type (domain or fragment, human, UniProt Q7LBR1 126-199, looked up)
chain: DVQTQQMEDTMSSTTTLTTPQNQVDMLLQEMADEAGLDLNMELPQGQTGSVGTSVASAEQDELSQRLARLRDQV
